The record followed here is paper PMC6361588, “Exploration of CTCF post-translation modifications uncovers Serine-224 phosphorylation by PLK1 at pericentric regions during the G2/M transition”.

The target of one data set is T1, FLAG-CTCF(S224E)-6xHis (UniProt Q61164 1-736, S224E).
T1 sequence: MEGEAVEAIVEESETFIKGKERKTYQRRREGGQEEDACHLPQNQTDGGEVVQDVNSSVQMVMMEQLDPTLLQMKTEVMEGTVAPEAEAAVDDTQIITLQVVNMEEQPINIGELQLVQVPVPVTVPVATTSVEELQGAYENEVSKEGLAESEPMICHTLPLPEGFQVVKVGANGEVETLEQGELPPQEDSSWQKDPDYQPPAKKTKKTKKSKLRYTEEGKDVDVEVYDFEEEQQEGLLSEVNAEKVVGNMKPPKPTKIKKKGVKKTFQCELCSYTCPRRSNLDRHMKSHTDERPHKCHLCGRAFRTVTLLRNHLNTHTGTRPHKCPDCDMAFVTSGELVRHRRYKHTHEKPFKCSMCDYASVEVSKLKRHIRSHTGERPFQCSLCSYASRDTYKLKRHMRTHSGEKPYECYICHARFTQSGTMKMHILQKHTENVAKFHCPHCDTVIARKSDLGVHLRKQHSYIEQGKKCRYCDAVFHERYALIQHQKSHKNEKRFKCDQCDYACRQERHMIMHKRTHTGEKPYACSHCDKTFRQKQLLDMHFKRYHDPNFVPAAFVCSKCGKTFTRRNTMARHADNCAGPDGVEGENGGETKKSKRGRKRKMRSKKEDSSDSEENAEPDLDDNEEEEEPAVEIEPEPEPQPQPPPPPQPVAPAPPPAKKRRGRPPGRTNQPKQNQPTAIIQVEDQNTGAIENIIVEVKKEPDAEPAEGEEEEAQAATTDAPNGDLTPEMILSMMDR
In words: EMSA; 0.5, 1 or 2 pmol protein; EMSA as in Sun et al., 2013; buffer, salt, pH and temperature not given in the material. The note with it: protein: recombinant; tags: N-terminal FLAG, C-terminal 6xHis; blunt.

Another data set addresses T2, FLAG-CTCF(S224A)-6xHis (UniProt Q61164 1-736, S224A).
T2 sequence: T1 sequence with E224A
Described as above. The conditions noted are these: protein: recombinant; tags: N-terminal FLAG, C-terminal 6xHis; blunt.

Where a chain is given by its changes, count along the chain named.

B1: RS14C (dsDNA)
DNA 1: CTATGCATTAGGTTTGGGTGTTATACCCGTGTAGGCCAGCAGAGGGTGTCGGATCCCAAGGAAACCAAGTTACAGACGCC
DNA 2: GGCGTCTGTAACTTGGTTTCCTTGGGATCCGACACCCTCTGCTGGCCTACACGGGTATAACACCCAAACCTAATGCATAG
For B1, the binding result in the data set with FLAG-CTCF(S224E)-6xHis and in the data set with FLAG-CTCF(S224A)-6xHis was “binds” throughout.

B2: RS14C mutant (dsDNA)
DNA 1: B1 DNA 1 with C37T, G42C, G45T
DNA 2: B1 DNA 2 with C36A, C39G, G44A
Turning to B2, the binding result in the data set with FLAG-CTCF(S224E)-6xHis and in the data set with FLAG-CTCF(S224A)-6xHis was “no binding” in each case.
